We go through one substance from patent publication US11434503.

The data set deals with piggyBac transposase wild type (Trichoplusia ni). Nature of the data set: cell_activity. The conditions noted are these: yeast excision assay; reference.
Sequence of piggyBac transposase wild type (Trichoplusia ni) (chain, as listed by the source): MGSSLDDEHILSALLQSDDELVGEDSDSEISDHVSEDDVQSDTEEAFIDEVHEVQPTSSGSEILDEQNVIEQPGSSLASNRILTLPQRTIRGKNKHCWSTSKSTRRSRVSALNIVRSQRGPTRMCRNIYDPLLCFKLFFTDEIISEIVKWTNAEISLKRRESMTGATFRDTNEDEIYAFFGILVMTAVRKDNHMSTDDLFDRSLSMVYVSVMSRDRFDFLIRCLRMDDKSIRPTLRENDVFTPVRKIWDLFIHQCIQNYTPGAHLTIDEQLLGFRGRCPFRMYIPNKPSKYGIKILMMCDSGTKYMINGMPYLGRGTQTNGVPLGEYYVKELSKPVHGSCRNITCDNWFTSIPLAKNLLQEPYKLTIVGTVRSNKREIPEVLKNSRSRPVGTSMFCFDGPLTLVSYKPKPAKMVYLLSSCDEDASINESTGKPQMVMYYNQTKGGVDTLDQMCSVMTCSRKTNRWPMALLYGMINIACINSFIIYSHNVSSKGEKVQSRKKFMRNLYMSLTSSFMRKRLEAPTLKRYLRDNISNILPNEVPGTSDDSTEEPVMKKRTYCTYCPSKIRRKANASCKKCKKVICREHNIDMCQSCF

For the substance “piggyBac transposon ura- to ura+ excision cassette in yeast”, the activity (fold (normalized)) was found to be 1.
